# Source: US9132169B2, “Methods and compositions for modulating adipocyte function” (Joslin Diabetes Center, Inc., priority 2003, dated 2015)
# “Also recorded” adds a separate entry of the source.
# B1: BMP-6: Recombinant human BMP-6 (R & D Systems, MN) (protein, listed as Homo sapiens)
# chain: RSASSRRRQQSRNRSTQSQDVARVSSASDYNSSELKTACRKHELYVSFQDLGWQDWIIAPKGYAANYCDGECSFPLNAHMNATNHAIVQTLVHLMNPEYVPKPCCAPTKLNAISVLYFDDNSNVILKKYRNMVVRACGCH
# B2: BMP-4: bone morphogenetic protein 4, added at 33 nM to culture medium (protein, listed as Homo sapiens)
# chain: SPKHHSQRARKKNKNCRRHSLYVDFSDVGWNDWIVAPPGYQAFYCHGDCPFPLADHLNSTNHAIVQTLVNSVNSSIPKACCVPTELSAISMLYLDEYDKVVLKNYQEMVVEGCGCR
# B3: BMP-5: bone morphogenetic protein 5, added at 33 nM to culture medium (protein, listed as Homo sapiens)
# chain: NQNRNKSSSHQDSSRMSSVGDYNTSEQKQACKKHELYVSFRDLGWQDWIIAPEGYAAFYCDGECSFPLNAHMNATNHAIVQTLVHLMFPDHVPKPCCAPTKLNAISVLYFDDSSNVILKKYRNMVVRSCGCH
# B4: BMP-7: bone morphogenetic protein 7 (protein, listed as Homo sapiens)
# chain: STGSKQRSQNRSKTPKNQEALRMANVAENSSSDQRQACKKHELYVSFRDLGWQDWIIAPEGYAAYYCEGECAFPLNSYMNATNHAIVQTLVHFINPETVPKPCCAPTQLNAISVLYFDDSSNVILKKYRNMVVRACGCH
# B5: BMP-3: bone morphogenetic protein 3, added at 33 nM to culture medium (protein, UniProt P12645 363-472, looked up)
# Bone morphogenetic protein 3: QWIEPRNCARRYLKVDFADIGWSEWIISPKSFDAYYCSGACQFPMPKSLKPSNHATIQSIVRAVGVVPGIPEPCCVPEKMSSLSILFFDENKNVVLKVYPNMTVESCACR
# What was measured:
# [1] = test system: WT brown preadipocytes; test: Brown adipocyte differentiation, Oil Red O staining; format: cell-based, mouse; conditions: for differentiation of brown preadipocytes, agent alone: brown preadipocyte cell line, single agent; for lipid accumulation as monitored by Oil Red O staining (brown adipocyte differentiation): 33 nM BMP, 10 days, absence of induction cocktail; for differentiation of brown preadipocytes, BMP plus insulin and T3: combination of BMP-6 or -7 plus insulin and T3
# Description: (§1) Preadipocytes were grown to confluence (day 0) in differentiation medium (Dulbecco's modified […] medium containing 10% Fetal Bovine Serum supplemented with 20 nM insulin and 1 nM T3). Adipocyte differentiation was induced by treating confluent cells for 48 hours in differentiation medium further supplemented with 0.5 mM isobutylmethylxanthine (IBMX), 0.5 mM dexamethazone, and 0.125 mM indomethacin. After this induction period (day 2), cells were placed back to differentiation medium, which was then changed every second day.
# (§2) Dishes were washed twice with phosphate-buffered saline and fixed with 10% buffered formalin for at least 1 hour at room temperature. Cells were then stained for 2 hours at room temperature with a filtered oil red 0 solution (0.5% oil red 0 in isopropyl alcohol), washed twice with distilled water, and visualized.
# Brown fat precursor cells were isolated from intrascapular brown fat of newborn mice and immortalized by SV40 T antigen.
# To begin to explore the role of BMPs on brown adipogenesis, the effect of six different BMPs on differentiation of WT brown preadipocytes was examined. In the absence of induction cocktail, 33 nM of BMPs were added to the normal culture medium and fresh medium was changed every 2 days.
# [2] = test system: BMP-6 gene expression; test: BMP-6 gene expression in wildtype brown adipocytes; format: cell-based, mouse; conditions: acute treatment
# [3] = test system: white preadipocytes (3T3-L1 cells); test: White preadipocyte differentiation, Oil Red O staining; format: cell-based; conditions: for insulin- and insulin/T3-induced differentiation of 3T3-L1 cells: BMP alone or combined with insulin
# Description: as §1, §2
# [4] = test system: IRS-1 KO brown preadipocytes; test: Differentiation of IRS-1 knockout brown preadipocytes; format: cell-based, mouse
# Description: as §1, §2
# These factors utilize a complex signaling pathway to exert their pleiotropic biological effects involving activation of their respective cell surface receptors and phosphorylation of several intracellular insulin/IGF-1 receptor substrates (IRS). To determine the role of this signaling pathway in the regulation of brown adipogenesis and metabolism, brown preadipocyte cell lines were generated from wild-type (WT) and different IRS knockout (KO) mice (Fasshauer et al., Mol Cell Biol 21:319-329 (2001); Tseng et al., J Biol. Chem. 277:31601-31611 (2002); Tseng et al., Mol Cell Biol 24:1918-1929 (2004)). These cells were studied in both their fibroblastic and differentiated states. […] This occurred not only at the levels of lipid accumulation, but also involved blockade of the normal pattern of progression in the transcriptional regulators of adipogenesis, such as C/EBPα and PPARγ, as well as thermogenic marker UCP-1.
# The differentiation inductive effect of BMP-6 is more easily seen in brown adipocytes from IRS-1 knockout animals, which are known to have a defect in adipocyte differentiation. […]
# [5] = test system: PGC-1a; test: PGC-1a mRNA expression by quantitative RT-PCR in brown preadipocytes; format: cell-based, mouse
# Excerpt: (§3) PGC-1∀ and UCP-1 are two decisive cellular markers of brown adipocytes.
# [6] = test system: PPARγ; test: PPARγ mRNA and protein expression in brown preadipocytes; format: cell-based, mouse
# Excerpt: as §3
# [7] = test system: mouse embryonic fibroblasts (MEFs); test: Adipogenesis in mouse embryonic fibroblasts, Oil Red O staining; format: cell-based; conditions: MEF cells, 1 μM rosiglitazone plus BMP, 10 days
# Description: To examine whether BMPs play a role in determining the fate of pluripotent stem cells toward brown adipocyte lineage, murine pluripotent cells, the effect of BMPs on adipogenesis was evaluated in mouse embryonic fibroblasts (MEFs), which were generated lab using the 3T3 protocol of Todaro and Green (J. Cell. Biol. 17:299-313 (1963)). The MEF cells were maintained in Dulbecco's Modified Eagle Medium (DMEM) supplemented with 10% FBS.
# (§4) MEF cells were grown in culture media containing 1 μM of rosiglitazone, BMPs, or a combination of both for 10 days. Oil Red O staining was performed at the end of differentiation to monitor the degree of adipogenesis. […] Whole cell lysates were isolated from these cells to examine the expression of the adipogenic marker FAS (fatty acid synthase).
# [8] = test system: Pref-1 (preadipocyte factor-1); test: Pref-1 expression by quantitative RT-PCR in IRS-1 KO cells; format: cell-based, mouse; conditions: 30 nM over six days
# Excerpt: IRS-1 signalling plays an important role in insulin resistance, which is a hallmark of Type II diabetes.
# [9] = test system: FAS (fatty acid synthase); test: FAS protein expression in MEF whole cell lysates; format: cell-based, mouse; conditions: MEF cells, presence of induction cocktail or TZD
# Description: as §4
# [10] = test system: p38 MAPK; test: BMP signaling in WT brown preadipocytes, phospho-specific antibody Western blot; format: cell-based, mouse; conditions: WT brown preadipocytes treated with recombinant BMP-6, phospho-specific antibodies (Thr180/Tyr182)
# Description: (§5) Brown fat precursor cells were isolated from intrascapular brown fat of newborn mice and immortalized by SV40 T antigen. […] Following differentiation with an induction cocktail of 20 nM insulin, 1 nM thyroid hormone [3,5,3′-triiodothyronine (T3)], 0.5 μM dexamethazone, 0.125 mM indomethacin, and 0.5 mM isobutylmethylxanthine, pre-adipocytes became smaller, rounded up, accumulated fat, and the cytoplasm/nuclear-ratio increased dramatically. Once fully differentiated, multi-locular fat droplets could be detected both microscopically and by Oil Red-O staining. Expression of UCP-1 was detected at basal state and upon β-adrenergic stimulation, confirming the features of brown adipocytes (methods described in Klein et al., J. Biol. Chem. 274:34795-34802 (1999)).
# (§6) To see if BMPs were able to transmit signals into these cells, the WT brown preadipocytes were treated with recombinant BMP-6 (R&D Systems).
# [11] = test system: Smad 1/5/8; test: as above; format: cell-based, mouse
# Description: as §5, §6
# [12] = test system: UCP-1 promoter; test: UCP-1 expression reporter gene (UCP-1 promoter linked to firefly luciferase); format: cell-based; conditions: 10 uM TZD and retinoic acid, presence of PPARγ and RxRa
# Excerpt: Adaptive thermogenesis is an important component of energy homeostasis and a metabolic defense against obesity.
# [13] = test system: UCP-1; test: UCP-1 protein expression by Western blot in brown preadipocytes; format: cell-based, mouse; conditions: combination of 20 nM insulin, 1 nM T3 and 8.3 nM BMP-7
# Excerpt: as §3
# [14] = standard induction conditions (W induction)
molecule,measurement,setting,value
"N[C@@H](Cc1cc(I)c(Oc2ccc(O)c(I)c2)c(I)c1)C(=O)O [T3, 3,5,3′-triiodothyronine, reference compound]","differentiation of brown preadipocytes, agent alone",[1],pro-differentiative effects
IGF-1: known inducer of adipocyte differentiation,BMP-6 gene expression,[2],acutely induce
insulin: known inducer of adipocyte differentiation,"differentiation of brown preadipocytes, agent alone",[1],pro-differentiative effects
same,BMP-6 gene expression,[2],acutely induce
B1,morphology of wild-type brown pre-adipocytes,[1],cause changes in the morphology
same,lipid accumulation as monitored by Oil Red O staining (brown adipocyte differentiation),[1],substantial increase in lipid accumulation
same,"differentiation of wildtype brown preadipocytes, without induction",[1]; absence of standard induction conditions (W/O induction),increased the level of brown adipocyte differentiation
same,"differentiation of brown preadipocytes, agent alone",[1],pro-differentiative effects
same,"differentiation of brown preadipocytes, BMP plus insulin and T3",[1],strongly enhanced
same,"differentiation of wildtype brown preadipocytes, with induction",[1]; [14],enhance differentiation; also recorded: enhanced the level of differentiation
same,acceleration of differentiation (Oil Red O staining),"[1]; wild-type brown adipocytes, presence of induction cocktail",1 to 2 days
same,differentiation of white preadipocytes,"[3]; 33 nM, 8 days",did not induce differentiation
same,insulin- and insulin/T3-induced differentiation of 3T3-L1 cells,[3],Little to no effect
same,"WAT differentiation (3T3-L1), without induction",[3]; W/O induction,no change
same,"differentiation of 3T3-L1 cells, with induction",[3]; [14],inhibited the level of differentiation
same,differentiation of IRS-1 KO brown preadipocytes,[4]; 30 nM over six days,restores the defects in differentiation
same,"BAT differentiation of IRS-1 knockout preadipocytes, without induction",[4]; W/O induction,no change
same,"differentiation of IRS-1 knockout brown preadipocytes, with induction",[4]; [14],"rescue, at least partially; also recorded: enhanced the level of differentiation"
same,PGC-1a mRNA expression at day 3,"[5]; Q-RT-PCR, day 3",quickly induced
same,PGC-1a mRNA expression as differentiation progressed to day 9,"[5]; Q-RT-PCR, to day 9",further increased
same,expression of PGC-1 during spontaneous differentiation,[5]; addition of recombinant BMP-6,induced expression
same,"PGC-1a mRNA expression at 0, 3, and 6 days after treatment","[5]; quantitative RT-PCR, FIG. 3",increase
same,PPARγ protein expression,"[6]; BMP-6 treatment, course of differentiation (0, 3, 6 days), Western blot",markedly induced; also recorded: approximately maximal by day 3; also recorded: increase
same,PPARγ mRNA expression,"[6]; BMP-6 treatment, course of differentiation (0, 3, 6 days), quantitative RT-PCR",markedly induced; also recorded: approximately maximal by day 3; also recorded: increase
same,expression of PPARγ during spontaneous differentiation,[6]; addition of recombinant BMP-6,induced expression
same,TZD effects on adipocyte differentiation (Oil Red O),[7],potentiated the TZD effects
same,Pref-1 expression,[8],down-regulation
same,FAS protein expression,[9],induced FAS protein expression
same,activation of p38 MAPK,[10],quickly activated
same,activation of p38 MAPK,[10]; listed as BMP6,activation
same,activation of Smad 1/5/8,[11]; WT brown preadipocytes treated with recombinant BMP-6,quickly activated
same,activation of Smad 1/5/8,"[11]; WT brown preadipocytes treated with recombinant BMP-6, listed as BMP6",activation
B2,lipid accumulation as monitored by Oil Red O staining (brown adipocyte differentiation),[1],substantial increase in lipid accumulation
B3,lipid accumulation as monitored by Oil Red O staining (brown adipocyte differentiation),[1],weaker effect
B4,lipid accumulation as monitored by Oil Red O staining (brown adipocyte differentiation),[1],substantial increase in lipid accumulation
same,"differentiation of brown preadipocytes, agent alone",[1],pro-differentiative effects
same,"differentiation of brown preadipocytes, BMP plus insulin and T3",[1],strongly enhanced
same,"differentiation of brown preadipocytes, insulin plus B7",[1]; combination with insulin,strong combination effects
same,insulin- and insulin/T3-induced differentiation of 3T3-L1 cells,[3],Little to no effect
same,TZD/RA-induced stimulation of UCP-1 promoter activity,[12],enhanced
same,"UCP-1 expression, combination treatments",[13],strongest induction
same,"PPARγ expression, combination treatments","[6]; combination of 20 nM insulin, 1 nM T3 and 8.3 nM BMP-7, Western blot",strongest induction
same,TZD effects on adipocyte differentiation (Oil Red O),[7],potentiated the TZD effects
same,FAS protein expression,[9],induced FAS protein expression
B5,lipid accumulation as monitored by Oil Red O staining (brown adipocyte differentiation),[1],no effect
